Results as given in patent US20160272693A1 (ZEALAND PHARMA A S, published 2016).
*1 amine or outer side, *2 acyl side, *3 side chain or, on linkers, in order; H or OH if unused. Bridges are numbered along the chain shown (N, C = ends). [ ]: non-standard residue; d: D form. The star is where a group is joined. C20 diacid = O=C(O)CCCCCCCCCCCCCCCCCCC(=O)*; γGlu = O=C(O)[C@H](CCC(=O)[*:2])N[*:1]; Hyp = O=C(O)[C@@H]1C[C@@H](O)CN1; NMeI = CC[C@H](C)[C@H](NC)C(=O)O; Sar = CNCC(=O)O

T1: human amylin receptor 3 (hAMYR3), hCTR2 co-expressed with human receptor activity modifying protein 3 (hRAMP3) (human, UniProt P30988 25-474; O60896 24-148)
T1 sequence (looked up) 1: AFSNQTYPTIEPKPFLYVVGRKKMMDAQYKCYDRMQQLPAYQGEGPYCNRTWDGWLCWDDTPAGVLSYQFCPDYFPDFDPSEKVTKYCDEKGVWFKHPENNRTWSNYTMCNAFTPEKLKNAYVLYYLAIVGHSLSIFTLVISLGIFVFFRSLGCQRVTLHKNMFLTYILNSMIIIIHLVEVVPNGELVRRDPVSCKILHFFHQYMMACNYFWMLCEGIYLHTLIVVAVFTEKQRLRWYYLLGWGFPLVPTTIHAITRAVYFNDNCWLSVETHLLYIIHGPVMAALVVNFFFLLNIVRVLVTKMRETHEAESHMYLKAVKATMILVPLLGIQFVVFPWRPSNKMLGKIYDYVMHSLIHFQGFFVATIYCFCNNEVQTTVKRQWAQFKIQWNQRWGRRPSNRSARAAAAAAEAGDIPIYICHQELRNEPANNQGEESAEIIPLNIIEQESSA
T1 sequence (looked up) 2: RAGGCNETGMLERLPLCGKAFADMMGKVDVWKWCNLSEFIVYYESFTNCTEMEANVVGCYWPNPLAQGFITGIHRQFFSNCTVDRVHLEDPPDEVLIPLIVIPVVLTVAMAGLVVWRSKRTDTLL

B1: [19CD]-isoGlu-R-C( )-GTAT-C( )-ATERLAHFLVRSSF-Gly(Me)-A-Ile(Me)-LSSTEVGSST-Hyp-NH2 (Compd. 31) (peptide)
peptide: {C20 diacid-γGlu}-RCGTATCATERLAHFLVRSSF[Sar]A[NMeI]LSSTEVGSST[Hyp]-NH2
modifications: disulfide 2-7
SMILES: CC[C@H](C)[C@@H](C(=O)N[C@@H](CC(C)C)C(=O)N[C@@H](CO)C(=O)N[C@@H](CO)C(=O)N[C@H](C(=O)N[C@@H](CCC(=O)O)C(=O)N[C@H](C(=O)NCC(=O)N[C@@H](CO)C(=O)N[C@@H](CO)C(=O)N[C@H](C(=O)N1C[C@H](O)C[C@H]1C(N)=O)[C@@H](C)O)C(C)C)[C@@H](C)O)N(C)C(=O)[C@H](C)NC(=O)CN(C)C(=O)[C@H](Cc1ccccc1)NC(=O)[C@H](CO)NC(=O)[C@H](CO)NC(=O)[C@H](CCCNC(=N)N)NC(=O)[C@@H](NC(=O)[C@H](CC(C)C)NC(=O)[C@H](Cc1ccccc1)NC(=O)[C@H](Cc1c[nH]cn1)NC(=O)[C@H](C)NC(=O)[C@H](CC(C)C)NC(=O)[C@H](CCCNC(=N)N)NC(=O)[C@H](CCC(=O)O)NC(=O)[C@@H](NC(=O)[C@H](C)NC(=O)[C@@H]1CSSC[C@H](NC(=O)[C@H](CCCNC(=N)N)NC(=O)CC[C@H](NC(=O)CCCCCCCCCCCCCCCCCCC(=O)O)C(=O)O)C(=O)NCC(=O)N[C@@H]([C@@H](C)O)C(=O)N[C@@H](C)C(=O)N[C@@H]([C@@H](C)O)C(=O)N1)[C@@H](C)O)C(C)C
B2: [19CD]-isoGlu-R-C( )-GTAT-C( )-ATERLAHFLQRSSF-Gly(Me)-A-Ile(Me)-LSSTEVGSFT-Hyp-NH2 (Compd. 32) (peptide)
peptide: {C20 diacid}-[γGlu]RCGTATCATERLAHFLQRSSF[Sar]A[NMeI]LSSTEVGSFT[Hyp]-NH2
modifications: disulfide 3-8
SMILES: CC[C@H](C)[C@@H](C(=O)N[C@@H](CC(C)C)C(=O)N[C@@H](CO)C(=O)N[C@@H](CO)C(=O)N[C@H](C(=O)N[C@@H](CCC(=O)O)C(=O)N[C@H](C(=O)NCC(=O)N[C@@H](CO)C(=O)N[C@@H](Cc1ccccc1)C(=O)N[C@H](C(=O)N1C[C@H](O)C[C@H]1C(N)=O)[C@@H](C)O)C(C)C)[C@@H](C)O)N(C)C(=O)[C@H](C)NC(=O)CN(C)C(=O)[C@H](Cc1ccccc1)NC(=O)[C@H](CO)NC(=O)[C@H](CO)NC(=O)[C@H](CCCNC(=N)N)NC(=O)[C@H](CCC(N)=O)NC(=O)[C@H](CC(C)C)NC(=O)[C@H](Cc1ccccc1)NC(=O)[C@H](Cc1c[nH]cn1)NC(=O)[C@H](C)NC(=O)[C@H](CC(C)C)NC(=O)[C@H](CCCNC(=N)N)NC(=O)[C@H](CCC(=O)O)NC(=O)[C@@H](NC(=O)[C@H](C)NC(=O)[C@@H]1CSSC[C@H](NC(=O)[C@H](CCCNC(=N)N)NC(=O)CC[C@H](NC(=O)CCCCCCCCCCCCCCCCCCC(=O)O)C(=O)O)C(=O)NCC(=O)N[C@@H]([C@@H](C)O)C(=O)N[C@@H](C)C(=O)N[C@@H]([C@@H](C)O)C(=O)N1)[C@@H](C)O
B3: [19CD]-isoGlu-R-C( )-GTAT-C( )-ATERLAHFLHRSSF-Gly(Me)-A-Ile(Me)-LSSTEVGSST-Hyp-NH2 (Compd. 30) (peptide)
peptide: {C20 diacid}-[γGlu]RCGTATCATERLAHFLHRSSF[Sar]A[NMeI]LSSTEVGSST[Hyp]-NH2
modifications: disulfide 3-8
SMILES: CC[C@H](C)[C@@H](C(=O)N[C@@H](CC(C)C)C(=O)N[C@@H](CO)C(=O)N[C@@H](CO)C(=O)N[C@H](C(=O)N[C@@H](CCC(=O)O)C(=O)N[C@H](C(=O)NCC(=O)N[C@@H](CO)C(=O)N[C@@H](CO)C(=O)N[C@H](C(=O)N1C[C@H](O)C[C@H]1C(N)=O)[C@@H](C)O)C(C)C)[C@@H](C)O)N(C)C(=O)[C@H](C)NC(=O)CN(C)C(=O)[C@H](Cc1ccccc1)NC(=O)[C@H](CO)NC(=O)[C@H](CO)NC(=O)[C@H](CCCNC(=N)N)NC(=O)[C@H](Cc1c[nH]cn1)NC(=O)[C@H](CC(C)C)NC(=O)[C@H](Cc1ccccc1)NC(=O)[C@H](Cc1c[nH]cn1)NC(=O)[C@H](C)NC(=O)[C@H](CC(C)C)NC(=O)[C@H](CCCNC(=N)N)NC(=O)[C@H](CCC(=O)O)NC(=O)[C@@H](NC(=O)[C@H](C)NC(=O)[C@@H]1CSSC[C@H](NC(=O)[C@H](CCCNC(=N)N)NC(=O)CC[C@H](NC(=O)CCCCCCCCCCCCCCCCCCC(=O)O)C(=O)O)C(=O)NCC(=O)N[C@@H]([C@@H](C)O)C(=O)N[C@@H](C)C(=O)N[C@@H]([C@@H](C)O)C(=O)N1)[C@@H](C)O
B4: [19CD]-isoGlu-R-C( )-GTAT-C( )-ATERLAHFLNRSSF-Gly(Me)-A-Ile(Me)-LSSTEVGSST-Hyp-NH2 (Compd. 29) (peptide)
peptide: {C20 diacid}-[γGlu]RCGTATCATERLAHFLNRSSF[Sar]A[NMeI]LSSTEVGSST[Hyp]-NH2
modifications: disulfide 3-8
SMILES: CC[C@H](C)[C@@H](C(=O)N[C@@H](CC(C)C)C(=O)N[C@@H](CO)C(=O)N[C@@H](CO)C(=O)N[C@H](C(=O)N[C@@H](CCC(=O)O)C(=O)N[C@H](C(=O)NCC(=O)N[C@@H](CO)C(=O)N[C@@H](CO)C(=O)N[C@H](C(=O)N1C[C@H](O)C[C@H]1C(N)=O)[C@@H](C)O)C(C)C)[C@@H](C)O)N(C)C(=O)[C@H](C)NC(=O)CN(C)C(=O)[C@H](Cc1ccccc1)NC(=O)[C@H](CO)NC(=O)[C@H](CO)NC(=O)[C@H](CCCNC(=N)N)NC(=O)[C@H](CC(N)=O)NC(=O)[C@H](CC(C)C)NC(=O)[C@H](Cc1ccccc1)NC(=O)[C@H](Cc1c[nH]cn1)NC(=O)[C@H](C)NC(=O)[C@H](CC(C)C)NC(=O)[C@H](CCCNC(=N)N)NC(=O)[C@H](CCC(=O)O)NC(=O)[C@@H](NC(=O)[C@H](C)NC(=O)[C@@H]1CSSC[C@H](NC(=O)[C@H](CCCNC(=N)N)NC(=O)CC[C@H](NC(=O)CCCCCCCCCCCCCCCCCCC(=O)O)C(=O)O)C(=O)NCC(=O)N[C@@H]([C@@H](C)O)C(=O)N[C@@H](C)C(=O)N[C@@H]([C@@H](C)O)C(=O)N1)[C@@H](C)O
B5: [19CD]-isoGlu-R-C( )-PTAT-C( )-ATDRLAHFLHRSSF-Gly(Me)-A-Ile(Me)-LSSTDVGSDTP-NH2 (Compd. 27) (peptide)
peptide: {C20 diacid}-[γGlu]RCPTATCATDRLAHFLHRSSF[Sar]A[NMeI]LSSTDVGSDTP-NH2
modifications: disulfide 3-8
SMILES: CC[C@H](C)[C@@H](C(=O)N[C@@H](CC(C)C)C(=O)N[C@@H](CO)C(=O)N[C@@H](CO)C(=O)N[C@H](C(=O)N[C@@H](CC(=O)O)C(=O)N[C@H](C(=O)NCC(=O)N[C@@H](CO)C(=O)N[C@@H](CC(=O)O)C(=O)N[C@H](C(=O)N1CCC[C@H]1C(N)=O)[C@@H](C)O)C(C)C)[C@@H](C)O)N(C)C(=O)[C@H](C)NC(=O)CN(C)C(=O)[C@H](Cc1ccccc1)NC(=O)[C@H](CO)NC(=O)[C@H](CO)NC(=O)[C@H](CCCNC(=N)N)NC(=O)[C@H](Cc1c[nH]cn1)NC(=O)[C@H](CC(C)C)NC(=O)[C@H](Cc1ccccc1)NC(=O)[C@H](Cc1c[nH]cn1)NC(=O)[C@H](C)NC(=O)[C@H](CC(C)C)NC(=O)[C@H](CCCNC(=N)N)NC(=O)[C@H](CC(=O)O)NC(=O)[C@@H](NC(=O)[C@H](C)NC(=O)[C@@H]1CSSC[C@H](NC(=O)[C@H](CCCNC(=N)N)NC(=O)CC[C@H](NC(=O)CCCCCCCCCCCCCCCCCCC(=O)O)C(=O)O)C(=O)N2CCC[C@H]2C(=O)N[C@@H]([C@@H](C)O)C(=O)N[C@@H](C)C(=O)N[C@@H]([C@@H](C)O)C(=O)N1)[C@@H](C)O
B6: [19CD]-isoGlu-R-C( )-GTAT-C( )-ATERLAHFLQRSSF-Gly(Me)-A-Ile(Me)-LSSTEVGSST-Hyp-NH2 (Compd. 28) (peptide)
peptide: {C20 diacid}-[γGlu]RCGTATCATERLAHFLQRSSF[Sar]A[NMeI]LSSTEVGSST[Hyp]-NH2
modifications: disulfide 3-8
SMILES: CC[C@H](C)[C@@H](C(=O)N[C@@H](CC(C)C)C(=O)N[C@@H](CO)C(=O)N[C@@H](CO)C(=O)N[C@H](C(=O)N[C@@H](CCC(=O)O)C(=O)N[C@H](C(=O)NCC(=O)N[C@@H](CO)C(=O)N[C@@H](CO)C(=O)N[C@H](C(=O)N1C[C@H](O)C[C@H]1C(N)=O)[C@@H](C)O)C(C)C)[C@@H](C)O)N(C)C(=O)[C@H](C)NC(=O)CN(C)C(=O)[C@H](Cc1ccccc1)NC(=O)[C@H](CO)NC(=O)[C@H](CO)NC(=O)[C@H](CCCNC(=N)N)NC(=O)[C@H](CCC(N)=O)NC(=O)[C@H](CC(C)C)NC(=O)[C@H](Cc1ccccc1)NC(=O)[C@H](Cc1c[nH]cn1)NC(=O)[C@H](C)NC(=O)[C@H](CC(C)C)NC(=O)[C@H](CCCNC(=N)N)NC(=O)[C@H](CCC(=O)O)NC(=O)[C@@H](NC(=O)[C@H](C)NC(=O)[C@@H]1CSSC[C@H](NC(=O)[C@H](CCCNC(=N)N)NC(=O)CC[C@H](NC(=O)CCCCCCCCCCCCCCCCCCC(=O)O)C(=O)O)C(=O)NCC(=O)N[C@@H]([C@@H](C)O)C(=O)N[C@@H](C)C(=O)N[C@@H]([C@@H](C)O)C(=O)N1)[C@@H](C)O

Target: T1, human amylin receptor 3 (hAMYR3), hCTR2 …
Assay: cell-based or functional assay

| Binder | hAMYR3 EC50 (nM); cAMP induction |
| --- | --- |
| B1 | 0.29 nM |
| B2 | 0.23 nM |
| B3 | 0.12 nM |
| B4 | 0.12 nM |
| {C20 diacid}-[γGlu]RCNTATCATQRLANFLHRSSF[Sar]A[NMeI]LSSTEVGSETP-NH2 (disulfide 3-8) [[19CD]-isoGlu-R-C( )-NTAT-C( )-ATQRLANFLHRSSF-Gly(Me)-A-Ile(Me)-LSSTEVGSETP-NH2 (Compd. 3)] | 0.2 nM |
| B5 | 0.16 nM |
| B6 | 0.13 nM |
